Assay results reported in paper PMC4227790.

Target: FLAG-tagged TRAP150 (thyroid hormone receptor-associated protein of 150 kDa), full length (UniProt Q9Y2W1)
Assay: co-IP; anti-FLAG immunoprecipitation of FLAG-TRAP150 (full length or truncated) from lysate of transfected HEK293 cells (hypotonic buffer with 0.5% Triton X-100, brought to 150 mM NaCl); precipitates mock- or RNase A-treated; immunoblot of endogenous partners

UniProt Q9Y2W1, sequence (Q9Y2W1 2-955): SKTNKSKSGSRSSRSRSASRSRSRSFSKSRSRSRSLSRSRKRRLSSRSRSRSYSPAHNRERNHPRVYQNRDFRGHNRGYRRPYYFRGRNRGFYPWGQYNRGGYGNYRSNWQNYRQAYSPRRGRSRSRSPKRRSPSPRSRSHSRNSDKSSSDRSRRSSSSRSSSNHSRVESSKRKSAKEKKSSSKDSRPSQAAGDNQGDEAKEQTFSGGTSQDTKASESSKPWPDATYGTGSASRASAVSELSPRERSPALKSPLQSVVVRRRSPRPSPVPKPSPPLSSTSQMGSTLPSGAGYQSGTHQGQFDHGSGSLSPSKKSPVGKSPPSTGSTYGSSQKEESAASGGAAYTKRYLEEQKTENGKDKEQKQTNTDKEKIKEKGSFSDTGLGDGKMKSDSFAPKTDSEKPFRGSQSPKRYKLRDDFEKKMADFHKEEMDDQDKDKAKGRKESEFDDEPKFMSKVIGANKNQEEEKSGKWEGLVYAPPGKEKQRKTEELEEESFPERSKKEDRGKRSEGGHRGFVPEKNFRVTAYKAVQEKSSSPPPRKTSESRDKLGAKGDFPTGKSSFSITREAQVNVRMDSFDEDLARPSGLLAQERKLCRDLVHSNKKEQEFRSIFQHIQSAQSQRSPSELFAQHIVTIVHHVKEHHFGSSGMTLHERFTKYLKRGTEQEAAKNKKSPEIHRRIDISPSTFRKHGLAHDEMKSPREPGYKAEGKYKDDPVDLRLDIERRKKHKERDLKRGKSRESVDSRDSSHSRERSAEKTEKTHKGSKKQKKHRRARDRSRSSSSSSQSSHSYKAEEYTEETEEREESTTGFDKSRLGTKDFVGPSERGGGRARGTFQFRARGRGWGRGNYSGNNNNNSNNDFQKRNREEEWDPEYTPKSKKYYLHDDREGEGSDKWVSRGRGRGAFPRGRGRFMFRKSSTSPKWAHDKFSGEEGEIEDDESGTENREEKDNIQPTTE

percent of CPSF160 co-precipitated: 10 to 20%
B1: CPSF160 (natural protein)
chain: MYAVYKQAHPPTGLEFSMYCNFFNNSERNLVVAGTSQLYVYRLNRDAEALTKNDRSTEGKAHREKLELAASFSFFGNVMSMASVQLAGAKRDALLLSFKDAKLSVVEYDPGTHDLKTLSLHYFEEPELRDGFVQNVHTPRVRVDPDGRCAAMLVYGTRLVVLPFRRESLAEEHEGLVGEGQRSSFLPSYIIDVRALDEKLLNIIDLQFLHGYYEPTLLILFEPNQTWPGRVAVRQDTCSIVAISLNITQKVHPVIWSLTSLPFDCTQALAVPKPIGGVVVFAVNSLLYLNQSVPPYGVALNSLTTGTTAFPLRTQEGVRITLDCAQATFISYDKMVISLKGGEIYVLTLITDGMRSVRAFHFDKAAASVLTTSMVTMEPGYLFLGSRLGNSLLLKYTEKLQEPPASAVREAADKEEPPSKKKRVDATAGWSAAGKSVPQDEVDEIEVYGSEAQSGTQLATYSFEVCDSILNIGPCANAAVGEPAFLSEEFQNSPEPDLEIVVCSGHGKNGALSVLQKSIRPQVVTTFELPGCYDMWTVIAPVRKEEEDNPKGEGTEQEPSTTPEADDDGRRHGFLILSREDSTMILQTGQEIMELDTSGFATQGPTVFAGNIGDNRYIVQVSPLGIRLLEGVNQLHFIPVDLGAPIVQCAVADPYVVIMSAEGHVTMFLLKSDSYGGRHHRLALHKPPLHHQSKVITLCLYRDLSGMFTTESRLGGARDELGGRSGPEAEGLGSETSPTVDDEEEMLYGDSGSLFSPSKEEARRSSQPPADRDPAPFRAEPTHWCLLVRENGTMEIYQLPDWRLVFLVKNFPVGQRVLVDSSFGQPTTQGEARREEATRQGELPLVKEVLLVALGSRQSRPYLLVHVDQELLIYEAFPHDSQLGQGNLKVRFKKVPHNINFREKKPKPSKKKAEGGGAEEGAGARGRVARFRYFEDIYGYSGVFICGPSPHWLLVTGRGALRLHPMAIDGPVDSFAPFHNVNCPRGFLYFNRQGELRISVLPAYLSYDAPWPVRKIPLRCTAHYVAYHVESKVYAVATSTNTPCARIPRMTGEEKEFETIERDERYIHPQQEAFSIQLISPVSWEAIPNARIELQEWEHVTCMKTVSLRSEETVSGLKGYVAAGTCLMQGEEVTCRGRILIMDVIEVVPEPGQPLTKNKFKVLYEKEQKGPVTALCHCNGHLVSAIGQKIFLWSLRASELTGMAFIDTQLYIHQMISVKNFILAADVMKSISLLRYQEESKTLSLVSRDAKPLEVYSVDFMVDNAQLGFLVSDRDRNLMVYMYLPEAKESFGGMRLLRRADFHVGAHVNTFWRTPCRGATEGLSKKSVVWENKHITWFATLDGGIGLLLPMQEKTYRRLLMLQNALTTMLPHHAGLNPRAFRMLHVDRRTLQNAVRNVLDGELLNRYLYLSTMERSELAKKIGTTPDIILDDLLETDRVTAHF
